Measured values as given in PMC5385344, “Large Diversity of Functional Nanobodies from a Camelid Immune Library Revealed by an Alternative Analysis of Next-Generation Sequencing Data” (Frontiers in Immunology, 2017).

B1: nanobody 8F09 (VHH)
VHH: EVQLVESGGGLVQAGGSLRLSCEASGRYVMGWFRQAPGKEREFVAVISRSGGSTNYADSVKGRFSVSRDSAKNTVYLQMNDLKPEDTAVYYCAASNRYGTNVLVTTALYDYWGQGTQVTVSS
notes: From a llama immunised with rhRON; found by conventional screening and by NGS; source: E. coli, crude periplasmic extract; E. coli, purified; not shown: FLAG3, C-terminal, kept
B2: nanobody 11F05 (VHH)
VHH: EVQLVESGGGSVQAGGSLRLSCAASGRYRMGWFRQAPGKEREFVAVISASGGSTYYADSVKGRFTIARDNAKTMVYLQMNSLKPEDTAVYYCAAKVNYYGDYDLAQNYDYWGQGTQVTVSS
notes: as for B1
B3: nanobody 8A12 (VHH)
VHH: EVQLVESGGGLVQAGGSLRVSCAASGLTFSRYNMGWFRQAPGKERDFVAAISSSDGSILYENSVKGRFTISRDNAENTVYLQMNSLEPEDTGVYYCAGSIVMSTLARKYDYWGQGTLVTVSS
notes: as for B1
B4: nanobody NGS00009 (VHH)
VHH: EVQLVESGGGLVQAGDSLRLSCAASGRTFSTYALGWFRQAPGKEREFVAVISGRGGTTYYAGSVKGRLTISRDNAKNTVYLQMNSLKPEDTAVYYCAAGSDFGAVVDNRPDYWGQGTLVTVSS
notes: majority-rule consensus of an NGS cluster; One of the 28 randomly selected NGS clusters; source: E. coli, crude periplasmic extract (synthetic DNA); not shown: FLAG3, C-terminal, kept
B5: nanobody NGS00027 (VHH)
VHH: EVQLVESGGGLVQVGASLRLSCRASGGTFDDYAMGWFRQRPGEEREFVAVISWNGAMTYYLNHIKGRFTISRDNAKNTAYLQMNNLEPGDTAVYYCAAERTLGWGVNPEAYASWGQGTLVTVSS
notes: as for B4
B6: nanobody NGS00020 (VHH)
VHH: EVQLVESGGALVQAGDSLRVSCVASGRTFSRYAMGWFRQAPGKQREFVAAISWDGDSTSYANSLKGRFTISRDNAKNTGYLYMNSLIPEDTAVYYCAADRGRTTAWTYWGEGTLVTVSS
notes: as for B4
B7: nanobody NGS00003 (VHH)
VHH: EVQLVESGGGLVQPGGSLRLSCAASGFAFSRYWMYWVRQAPGKGLEWVSAISSSGSSTDYVDSVKGRFTVSRDNAKNTLYLQMNGLKSEDTAIYYCAKDTRQFIRSNYDNGGQGTLVTVSS
notes: as for B4

Each binder was assayed against T1, Recombinant extracellular domain of human RON (rhRON) (human, UniProt Q04912) (assay: ELISA; ligand competition: rhRON (1 µg/ml) immobilised directly; dilution series of purified nanobodies starting at 1 µM added together with 2 nM biotinylated MSP; MSP detected by extravidin peroxidase). Settings: both partners purified.
T1 construct: recepteur d'origine nantais (RON) receptor tyrosine kinase, human, recombinant extracellular domain; also called recepteur d'origine nantais; source: bought: R&D Systems
T1 sequence (Q04912 25-957): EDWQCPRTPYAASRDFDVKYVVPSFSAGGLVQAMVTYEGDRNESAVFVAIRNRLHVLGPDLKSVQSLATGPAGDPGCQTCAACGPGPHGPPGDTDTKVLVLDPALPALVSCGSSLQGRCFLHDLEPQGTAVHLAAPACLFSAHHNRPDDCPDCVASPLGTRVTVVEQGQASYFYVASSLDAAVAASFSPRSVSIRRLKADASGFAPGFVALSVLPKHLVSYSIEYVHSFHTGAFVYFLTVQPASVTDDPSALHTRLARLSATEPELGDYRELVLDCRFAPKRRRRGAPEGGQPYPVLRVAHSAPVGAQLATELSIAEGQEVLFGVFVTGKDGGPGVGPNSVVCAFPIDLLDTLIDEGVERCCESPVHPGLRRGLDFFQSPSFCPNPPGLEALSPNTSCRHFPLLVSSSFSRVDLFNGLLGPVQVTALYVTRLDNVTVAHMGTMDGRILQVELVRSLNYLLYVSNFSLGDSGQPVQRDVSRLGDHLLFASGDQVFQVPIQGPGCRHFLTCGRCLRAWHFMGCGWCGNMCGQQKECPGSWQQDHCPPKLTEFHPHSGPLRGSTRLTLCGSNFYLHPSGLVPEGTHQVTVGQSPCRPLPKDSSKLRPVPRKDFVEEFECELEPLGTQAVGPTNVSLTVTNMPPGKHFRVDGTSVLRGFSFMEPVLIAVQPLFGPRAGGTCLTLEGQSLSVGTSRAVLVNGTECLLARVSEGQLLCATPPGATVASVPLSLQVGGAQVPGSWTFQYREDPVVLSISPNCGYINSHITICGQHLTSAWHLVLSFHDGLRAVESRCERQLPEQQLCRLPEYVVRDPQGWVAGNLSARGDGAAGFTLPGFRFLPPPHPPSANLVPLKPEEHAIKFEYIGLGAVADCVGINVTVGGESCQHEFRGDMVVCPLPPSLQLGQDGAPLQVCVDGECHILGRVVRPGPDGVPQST

Row | Binder | IC50 [nM] | maximum inhibition of MSP binding [%]
1 | B1 | 12 | 98
2 | B2 | 9.7 | 98
3 | B3 | 7 | 96

The binders below were run against T2, RON endogenously expressed on T-47D human breast cancer cells (Homo sapiens (T-47D cell line), UniProt Q04912) (assay: flow cytometry on cells; dilution series of purified nanobodies starting at 500 nM on T-47D cells endogenously expressing RON; anti-FLAG then anti-mouse APC). Settings: one partner purified.
T2 construct: recepteur d'origine nantais (RON), endogenous on the human breast cancer cell line T-47D; also called hRON; source: endogenous, on T-47D cells
T2 sequence (Q04912 25-1400): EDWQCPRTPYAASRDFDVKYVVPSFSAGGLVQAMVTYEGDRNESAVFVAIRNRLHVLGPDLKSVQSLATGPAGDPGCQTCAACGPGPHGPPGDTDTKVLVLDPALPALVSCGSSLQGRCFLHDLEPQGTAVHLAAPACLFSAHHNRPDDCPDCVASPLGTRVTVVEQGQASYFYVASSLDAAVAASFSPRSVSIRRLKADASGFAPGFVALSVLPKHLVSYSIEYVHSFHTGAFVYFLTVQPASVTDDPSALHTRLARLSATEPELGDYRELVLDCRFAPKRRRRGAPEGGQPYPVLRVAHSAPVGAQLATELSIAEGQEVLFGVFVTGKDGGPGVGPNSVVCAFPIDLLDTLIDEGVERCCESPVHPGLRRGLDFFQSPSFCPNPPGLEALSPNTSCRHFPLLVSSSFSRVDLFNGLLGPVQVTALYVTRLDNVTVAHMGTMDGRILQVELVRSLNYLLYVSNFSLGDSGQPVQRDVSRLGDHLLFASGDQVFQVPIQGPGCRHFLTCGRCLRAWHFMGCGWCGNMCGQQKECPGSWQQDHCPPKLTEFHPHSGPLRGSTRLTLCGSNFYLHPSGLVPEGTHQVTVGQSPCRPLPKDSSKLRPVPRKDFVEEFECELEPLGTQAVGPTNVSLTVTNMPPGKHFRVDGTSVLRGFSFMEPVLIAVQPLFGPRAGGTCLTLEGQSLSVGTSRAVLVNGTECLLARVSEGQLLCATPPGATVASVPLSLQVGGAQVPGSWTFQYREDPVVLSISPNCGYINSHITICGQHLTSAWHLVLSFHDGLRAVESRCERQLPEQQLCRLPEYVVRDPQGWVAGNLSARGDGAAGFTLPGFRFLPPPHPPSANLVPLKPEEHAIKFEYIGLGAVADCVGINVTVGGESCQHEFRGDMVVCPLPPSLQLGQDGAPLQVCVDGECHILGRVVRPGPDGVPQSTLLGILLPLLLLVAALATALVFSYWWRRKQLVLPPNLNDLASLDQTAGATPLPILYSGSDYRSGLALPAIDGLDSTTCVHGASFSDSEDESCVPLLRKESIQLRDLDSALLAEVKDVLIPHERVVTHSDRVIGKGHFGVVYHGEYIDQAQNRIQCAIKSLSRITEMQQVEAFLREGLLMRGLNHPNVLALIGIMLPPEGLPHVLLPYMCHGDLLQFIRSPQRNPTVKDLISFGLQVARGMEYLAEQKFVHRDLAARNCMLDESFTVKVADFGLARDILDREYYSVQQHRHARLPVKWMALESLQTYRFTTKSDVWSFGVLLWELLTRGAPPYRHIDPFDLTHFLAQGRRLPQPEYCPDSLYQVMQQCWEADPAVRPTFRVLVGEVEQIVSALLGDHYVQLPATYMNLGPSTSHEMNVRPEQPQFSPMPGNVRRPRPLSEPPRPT

Row | Binder | EC50 [nM]
4 | B1 | 0.2
5 | B2 | 0.053
6 | B3 | 0.12

Each binder was assayed against T1, Recombinant extracellular domain of … (assay: SPR; ProteOn; rhRON immobilised on GLC chip; 1/10 diluted crude periplasmic extracts injected 2 min at 45 µl/min; Langmuir model, off-rate only). Settings: one partner purified.

Row | Binder | koff [s⁻¹]
7 | B1 | 0.00064
8 | B2 | 0.00046
9 | B3 | 0.0028

Each binder was assayed against T1, Recombinant extracellular domain of … (assay: ELISA; rhRON (1 µg/ml) immobilised directly on 384-well plates; crude periplasmic extracts of nanobodies; detection by anti-FLAG HRP; positive if OD450 ratio to a negative control nanobody ≥2). Settings: one partner purified.

Row | Binder | binding result
10 | B4 | binds
11 | B5 | no binding
12 | B6 | no binding
13 | B7 | no binding

These binders were tested against T2, RON endogenously expressed on T-47D … (assay: cell-based or functional assay). Settings: not given.

Row | Binder | IC50 (M) inhibition of ERK phosphorylation induced by 1 nM MSP through RON on T-47D cells; purified nanobody, HTRF phospho-ERK [M] | maximum inhibition (efficacy) of MSP-induced ERK phosphorylation in T-47D cells [%]
14 | B1 | 5.2e-09 | 99
15 | B2 | 6e-09 | 100
16 | B3 | 1.3e-08 | 100

The binders below were run against T3, full-length human RON expressed on HEK293T cells (HEK293T-hRON) (Homo sapiens, UniProt Q04912) (assay: flow cytometry on cells; 1/10 diluted crude periplasmic extracts on HEK293T-hRON and HEK293T cells; anti-FLAG then anti-mouse APC; positive if normalised ratio ≥2). Settings: partners not purified.
T3 construct: also called cell-expressed RON; source: HEK293T, transiently transfected (pcDNA3.1), on cells
T3 sequence (Q04912 25-1400): as above

Row | Binder | binding result
17 | B5 | no binding
18 | B6 | no binding
19 | B7 | no binding
